The results in this text go back to patent US20180295858.

In this data set the target is T1, H-AAPPA-NH2.
T1 chain: AAPPA

B1: proline tolerant tripeptidyl peptidase TRI083 (protein)
chain: QEPSSCKGTLVFEGETFNVFQPDCLRTEYSVDGYTPSVKSGSRIGFGSFLNESASFADQALFEKHFNIPSQNFSVVLINGGTDLPQPPSDANDGEANLDAQTILTIAHPLPITEFITAGSPPYFPDPVEPAGTPNENEPYLQYYEFLLSKSNAEIPQVITNSYGDEEQTVPRSYAVRVCNLIGLLGLRGISVLHSSGDEGVGASCVATNSTTPQFNPIFPATCPYVTSVGGTVSFNPEVAWAGSSGGFSYYFSRPWYQQEAVGTYLEKYVSAETKKYYGPYVDFSGRGFPDVAAHSVSPDYPVFQGGELTPSGGTSAASPVVAAIVALLNDARLREGKPTLGFLNPLIYLHASKGFTDITSGQSEGCNGNNTQTGSPLPGAGFIAGAHWNATKGWDPTTGFGVPNLKKLLALVRF
In the case of B1, the “hydrolysis of synthetic substrate AAPPA, LC-MS with label free quantification” value is “over time is able to degrade the peptide AAPPA (FIG. 5) and generate the product AAP (FIG. 6)”.
